Laboratory results reported in patent US20230093708A1, “PROTEIN NANOPARTICLE DESIGN AND APPLICATION” (Duke University, priority 2020, published 2023).
Non-standard residues stand in square brackets, D forms with d. Phe(4-N3) = [N-]=[N+]=Nc1ccc(C[C@H](N)C(=O)O)cc1

Key:
[1] = Temperature-programmed dynamic light scattering; assay type: physicochemical; details: between 4 °C and 37 °C; micelles 20-37 °C; 10 μM in 140 mM PBS
Experimental: Temperature-programmed dynamic light scattering experiments were carried out using a Dynapro plate reader (Wyatt Technology; Santa Barbara, Calif.) with samples filtered through 0.45 μm Millex-GV filters. Data were collected at increments of 1° C., and the cumulant fit hydrodynamic radius was taken as the radius. The Tt was defined as the temperature at which aggregates of size hundreds of nanometers were formed.
Each block co-polypeptide was analyzed by dynamic light scattering (DLS) at several temperatures between 4° C. and 37° C. to determine the thermal stability of the micelles, and to determine their radius of hydration (Rh). […] In contrast, RLP40-ELP80 (SEQ ID NO: 84) and RLP40-ELP80-Fn3 (SEQ ID NO: 96) self-assembled into micelles with a Rh of 30 and 32 nm, respectively, between 20-37° C. (FIG. 15).
Therefore, to get a more accurate picture, we monitored the Rh as we slowly cooled the solution. We observed two different overall behaviors. [S]-40-[QHN]-40 (SEQ ID NO: 100) upon cooling underwent a clear unimer to micelle transition at ˜55° C. and a clear micelle to aggregate transition at 28° C. (FIG. 32B). A unimer to micelle transition that is temperature dependent is known as the critical micellization temperature (CMT). As we know from before, this UCST aggregation temperature is dependent on the solution concentration. [S]-80-[QHN]-40 (SEQ ID NO: 101) remained a micelle at the highest temperature we could measure with the instrument. Upon cooling the size of the aggregate increased slightly until a clear aggregate transition at 18° C.

[2] = Static and dynamic light scattering (SLS/DLS) of block co-polypeptides; assay type: physicochemical
Method in brief: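 Samples at 10 μM in PBS (140 mM NaCl, 10 mM phosphate, 3 mM KCl, pH 7.4), filtered 0.45 μm, measured at 15 °C over 30°–150° in 5° steps. Rh from cumulant fit of DLS, extrapolated to zero angle. Rg and MW from partial Zimm plots of SLS.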

[3] = DLS of native and crosslinked pAzF diblock constructs in PBS and GuHCl; assay type: physicochemical; details: for hydrodynamic radius (DLS): Table 12, crosslinked UAA5-40-K8D4 ligand constructs
Excerpt: We wanted to thoroughly investigate the effects of pAzF-introduction as well as nanoparticle crosslinking on nanoparticle self-assembly. For this, we started by characterizing solely our five different ELP/RLP diblock architectures without any C-terminal functionalization. After expression and purification of the diblock constructs using ITC, the pAzF-containing constructs were crosslinked in solution by exposure to UV irradiation and characterized using dynamic light scattering (DLS). […] Generally, both processes seem to have increased the measured radii with this effect being more pronounced for the worm-forming constructs.
Apart from changes in nanoparticle morphology we were particularly interested in the effect pAzF-crosslinking had on their stability. […] GuHCl is a well-known denaturing agent that disrupts any inter- and intramolecular electrostatic forces and completely breaks down the quaternary, tertiary and secondary structure of most known proteins. Covalent bonds—such as the ones formed by pAzF-crosslinking—however remain unaffected by GuHCl, thus, the addition of this denaturing agent was expected to give us insights on the stability of our crosslinked nanoparticles. […] All native samples on the other hand resorted to complete unimerization upon exposure to GuHCl. As the Rh values for the crosslinked particles in GuHCl were generally larger than in PBS, the DLS data furthermore indicates a swelling behavior in the presence of the denaturing agent. This can most probably be attributed to the RLP core which is assumed to be completely collapsed in PBS but will however try to reach an elongated, random-coil morphology in the presence of GuHCl.
The first step of the characterization process was to produce crosslinked particles for the functionalized diblock constructs and to analyze whether the attachment of the ligands had caused any significant changes in particle size. […] Whatever the reason was, it had no effect on the crosslinking process as the particles still remained stable after GuHCl exposure.
Dynamic light scattering of cross-linkable protein nanoparticles was performed. […] However, these crosslinked particles remain assembled, actually growing slightly in size due to chain swelling of the core and corona in this new buffer. These novel scaffolds support various targeting domains and assemble into nearly identically sized nanoparticles between […] in hydrodynamic radius.

[4] = Cryo-TEM micelle core size, inter-core spacing and aspect ratio; assay type: physicochemical
Method in brief: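 Vitrified 10 μM RLPn-ELP80 (3 s blot, chamber at 15° C., 100% humidity) imaged by cryo-TEM at 80 keV. Core size and spacing measured manually on at least 25 particles; aspect ratio from the longest straight line of a particle and its perpendicular.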

[5] = system: K562+αvβ3 cell line; assay: Flow cytometry cell uptake of Alexa488-labeled micelles; assay type: cell-based; details: 10 μM, 37 °C, 2 hours
Experimental: Approximately 1×10^8 cells were harvested from either K562 or K562+αvβ3 cell lines and resuspended into 1 mL of serum-free medium containing 10 μM of the various Fn3-decorated and control block polypeptides. LM609 antibody was also resuspended at 10 μM in serum-free medium. Micelles were prepared from a mixture of ˜10% Alexa 488 dye-labeled RLP-ELP block co-polypeptides and 90% unlabeled polypeptides on a molar basis. The cells were incubated at 37° C. with the labeled micelles for a specified time, then rinsed with 1 mL of Hanks Buffered Saline Solution (HBSS), collected by centrifugation at 500 RCF for 5 min at 20° C., and resuspended in HBSS+1% BSA. Cells were maintained on ice until they were analyzed by flow cytometry (BD Accuri C5). The cell fluorescence intensity of Alexa 488 (Green) was quantified after gating to remove cellular debris on unstained control samples.
To assess the intracellular uptake of these particles, we used a cell line stably transfected with the αvβ3 integrin. The native cell line, K562, has endogenously low levels of expression of this receptor and therefore serves as the receptor-negative control, and the un-decorated RLPXX-ELP80 micelles serve as ligand-negative controls for each type—size and shape—of micelle. […]

[6] = Table 8, 15 °C, 140 mM PBS, 10 μM

B1: RLP20-ELP80: RLP-ELP block co-polypeptide, (QYPSDGRG)20-(VPG[A:G]G)80 (protein)
chain: QYPSDGRGQYPSDGRGQYPSDGRGQYPSDGRGQYPSDGRGQYPSDGRGQYPSDGRGQYPSDGRGQYPSDGRGQYPSDGRGQYPSDGRGQYPSDGRGQYPSDGRGQYPSDGRGQYPSDGRGQYPSDGRGQYPSDGRGQYPSDGRGQYPSDGRGQYPSDGRGGAGVPGGGVPGAGVPGGGVPGAGVPGGGVPGAGVPGGGVPGAGVPGGGVPGAGVPGGGVPGAGVPGGGVPGAGVPGGGVPGAGVPGGGVPGAGVPGGGVPGAGVPGGGVPGAGVPGGGVPGAGVPGGGVPGAGVPGGGVPGAGVPGGGVPGAGVPGGGVPGAGVPGGGVPGAGVPGGGVPGAGVPGGGVPGAGVPGGGVPGAGVPGGGVPGAGVPGGGVPGAGVPGGGVPGAGVPGGGVPGAGVPGGGVPGAGVPGGGVPGAGVPGGGVPGAGVPGGGVPGAGVPGGGVPGAGVPGGGVPGAGVPGGGVPGAGVPGGGVPGAGVPGGGVPGAGVPGGGVPGAGVPGGGVPGAGVPGGGVPGAGVPGGGVPGAGVPGGGVPGAGVPGGGVPGAGVPGGGVP
In the case of B1, the “Rh (DLS at several temperatures)” value [1] is reported as roughly 7 nm, the “hydrodynamic radius (Rh)” value [2] is reported as 5.5 nm and the “Rh (nm)” value ([2]; Table 1, 10 μM in PBS, 15 °C) is reported as 5.5 nm.

B2: UAA5-40: pAzF-containing sphere-forming diblock construct (protein)
chain: QYPSDGRGQYPSDGRGQYPSDGRGQYPSDGRGQYPSDGRGQYPSDGRGQYPSDGRGQYPSDGRGQYPSDGRGQYPSDGRGQYPSDGRGQYPSDGRGQYPSDGRGQYPSDGRGQYPSDGRGQYPSDGRGQYPSDGRGQYPSDGRGQYPSDGRGQYPSDGRG[Phe(4-N3)]QYPSDGRGQYPSDGRGQYPSDGRGQYPSDGRGQYPSDGRGQYPSDGRGQYPSDGRGQYPSDGRGQYPSDGRGQYPSDGRGQYPSDGRGQYPSDGRGQYPSDGRGQYPSDGRGQYPSDGRGQYPSDGRGQYPSDGRGQYPSDGRGQYPSDGRGQYPSDGRG[Phe(4-N3)]QYPSDGRGQYPSDGRGQYPSDGRGQYPSDGRGQYPSDGRGQYPSDGRGQYPSDGRGQYPSDGRGQYPSDGRGQYPSDGRGQYPSDGRGQYPSDGRGQYPSDGRGQYPSDGRGQYPSDGRGQYPSDGRGQYPSDGRGQYPSDGRGQYPSDGRGQYPSDGRG[Phe(4-N3)]QYPSDGRGQYPSDGRGQYPSDGRGQYPSDGRGQYPSDGRGQYPSDGRGQYPSDGRGQYPSDGRGQYPSDGRGQYPSDGRGQYPSDGRGQYPSDGRGQYPSDGRGQYPSDGRGQYPSDGRGQYPSDGRGQYPSDGRGQYPSDGRGQYPSDGRGQYPSDGRG[Phe(4-N3)]
In the case of B2, the “RH (nm)” value ([3]; 15 μm in 7.2M GuHCl, crosslinked) is reported as 52.1 ± 1.0 nm, the “RH (nm)” value ([3]; 15 μm in 7.2M GuHCl, native (not crosslinked)) is reported as 5.9 ± 1.6 nm and the “RH (nm)” value ([3]; 15 μm in PBS, crosslinked) is reported as 34.3 ± 0.3 nm. For the same molecule, the “RH (nm)” value ([3]; 15 μm in PBS, native (not crosslinked)) was 29.8 ± 0.2 nm, the “RH (nm)” value ([3]; Table 11, crosslinked UAA5-40-K8D4-ligand constructs, 0.7 μM in 7.2M GuHCl) was 52.1 ± 1.0 nm and the “RH (nm)” value ([3]; Table 11, crosslinked UAA5-40-K8D4-ligand constructs, 7 μM in PBS) was 34.3 ± 0.3 nm. For the same molecule, the “hydrodynamic radius (DLS)” value ([3]; 0.7 μM in 7.2M GuHCl) was 52.1 ± 1.0 and the “hydrodynamic radius (DLS)” value ([3]; 7 μM in PBS) was 34.3 ± 0.3.

B3: RLP80-ELP80: RLP-ELP block co-polypeptide forming worm-like micelles (protein)
chain: QYPSDGRGQYPSDGRGQYPSDGRGQYPSDGRGQYPSDGRGQYPSDGRGQYPSDGRGQYPSDGRGQYPSDGRGQYPSDGRGQYPSDGRGQYPSDGRGQYPSDGRGQYPSDGRGQYPSDGRGQYPSDGRGQYPSDGRGQYPSDGRGQYPSDGRGQYPSDGRGQYPSDGRGQYPSDGRGQYPSDGRGQYPSDGRGQYPSDGRGQYPSDGRGQYPSDGRGQYPSDGRGQYPSDGRGQYPSDGRGQYPSDGRGQYPSDGRGQYPSDGRGQYPSDGRGQYPSDGRGQYPSDGRGQYPSDGRGQYPSDGRGQYPSDGRGQYPSDGRGQYPSDGRGQYPSDGRGQYPSDGRGQYPSDGRGQYPSDGRGQYPSDGRGQYPSDGRGQYPSDGRGQYPSDGRGQYPSDGRGQYPSDGRGQYPSDGRGQYPSDGRGQYPSDGRGQYPSDGRGQYPSDGRGQYPSDGRGQYPSDGRGQYPSDGRGQYPSDGRGQYPSDGRGQYPSDGRGQYPSDGRGQYPSDGRGQYPSDGRGQYPSDGRGQYPSDGRGQYPSDGRGQYPSDGRGQYPSDGRGQYPSDGRGQYPSDGRGQYPSDGRGQYPSDGRGQYPSDGRGQYPSDGRGQYPSDGRGQYPSDGRGQYPSDGRGQYPSDGRGGPGAGVPGGGVPGAGVPGGGVPGAGVPGGGVPGAGVPGGGVPGAGVPGGGVPGAGVPGGGVPGAGVPGGGVPGAGVPGGGVPGAGVPGGGVPGAGVPGGGVPGAGVPGGGVPGAGVPGGGVPGAGVPGGGVPGAGVPGGGVPGAGVPGGGVPGAGVPGGGVPGAGVPGGGVPGAGVPGGGVPGAGVPGGGVPGAGVPGGGVPGAGVPGGGVPGAGVPGGGVPGAGVPGGGVPGAGVPGGGVPGAGVPGGGVPGAGVPGGGVPGAGVPGGGVPGAGVPGGGVPGAGVPGGGVPGAGVPGGGVPGAGVPGGGVPGAGVPGGGVPGAGVPGGGVPGAGVPGGGVPGAGVPGGGVPGAGVPGGGVPGAGVPGGGVPGAGVPGGGVPGAGVPGGGVP
In the case of B3, the “core radius (cryo-TEM)” value [4] is reported as 19.9 nm, the “spacing between particle cores (cryo-TEM)” value [4] is reported as 34.7 nm and the “Spacing (nm)” value ([4]; Table 2, inter-core spacing, mean ± standard deviation) is reported as 34.7 ± 4.2 nm. The “Core radius (nm)” value ([4]; Table 2, mean ± standard deviation, 10 μM in 140 mM PBS) was 19.9 ± 2.8 nm, the “Core Diameter (nm) [n = 30]” value [4, 6] was 39.4 ± 5.4 nm and the “Intra-core Spacing (nm) [n = 30]” value [4, 6] was 35.0 ± 4.5 nm. The “cell fluorescence (Geometric Mean±StDev)” value [5] was 24904±13884, the “Rh (DLS at several temperatures)” value [1] was 112 nm and the “aggregation number (Nagg)” value [2] was “in the thousands of chains”. The “hydrodynamic radius (Rh)” value [2] was “over 100 nm”, the “radius of gyration (Rg)” value [2] was “above 140 nm” and the “shape factor / form factor (Rg/Rh)” value [2] was “around 1.2”. For the same molecule, the Nagg ([2]; Table 1, 10 μM in PBS, 15 °C) was 2240, the “Rg(nm)” value ([2]; Table 1, 10 μM in PBS, 15 °C) was 145.4 nm and the “Rh (nm)” value ([2]; Table 1, 10 μM in PBS, 15 °C) was 114.3 nm. It also gave a ρ ([2]; Table 1, shape factor Rg/Rh) of 1.27.
